Experimental data taken from US20040170622A1, “Methods and compositions for modulating XBP-1 activity” (President and Fellows of Harvard College, priority 2002, published 2004).

Assays:
UPR target genes = assay: Genes induced by XBP-1s in MEF-tet-off-XBP-1s cells (gene array, Northern blot); format: cell-based; conditions: doxycycline removed for three days
Protocol: XBP-1s expression was induced by culturing the cells for three days in doxycycline free media or by treating with Tm for the indicated time. […] Total RNA was also prepared to measure the expression level of BiP, CHOP, ERdj4, p58^ipk and ATF6α mRNA. (B) Additional XBP-1 dependent target genes identified in gene profiling experiments (Table 2) confirmed by Northern analysis in both XBP-1s MEF-tet-off and XBP-1^−/− MEFs. Ethidium bromide staining of the gels before blotting are shown at the bottom.
293T and MEF cells derived from wild type and XBP-1^−/− embryos were cultured in DMEM supplemented with 10% fetal calf serum (Hyclone Laboratories). MEF-tet-off cells (Clontech) were maintained in the same media with the addition of 100 μg/ml G418 and 1 μg/ml doxycycline. XBP-1s inducible cells were obtained by transfecting MEF-tet-off cells with the TREhyg-XBP-1s plasmid and then selecting in the presence of 400 μg/ml hygromycin B. Several clones were tested for doxycycline-dependent XBP-1s expression, and one was selected for further experiments. MEF-dn-XBP cells were generated by transfecting MEF-tet-off cells with the TREhyg-dn-XBP plasmid. […] ATF6α and β knockdown MEF cells were generated by cotransfecting wild type MEF cells with U6-iATF6α and β and cmv-puromycin or transducing cells with retroviruses containing each RNAi vector.
Total RNA was isolated from MEF cells with TRIZOL reagent (Invitrogen, Carlsbad, Calif.). cDNA synthesis, hybridization and laser scanning of the array were carried out at the Gene Array Technology Center (Brigham and Women's Hospital, Boston, Mass.) with MG-U74A GeneChips which had 6,000 functionally characterized sequences and 6,000 ESTs from the UniGene database (Affymetrix, Santa Clara, Calif.) as recommended by Affymetrix. Data analysis was performed using Affymetrix GeneChip 3.1 software under default parameter setting.
To examine whether XBP-1 itself is sufficient to induce these UPR target genes, the tet-off system was used to establish a cell line in which the spliced form of XBP-1, XBP-1s, is placed downstream of a tetracycline dependent promoter. XBP-1s was induced by removing doxycycline in the culture medium for three days. […] To identify genes that were induced by XBP-1s, total RNAs were prepared from MEF-tet-off-XBP-1s cells cultured in the presence or absence of doxycycline and gene array analysis performed (Table 1). […] In addition, ˜23% of the total pool of analyzed UPR target genes were induced by XBP-1s, although the fold induction tended to be lower than upon Tm treatment. These UPR genes included Herp, BiP, Aremt, AW124049 EST and interferon beta. […] The expression of BiP, CHOP, ERdj4 and p58^ipk was confirmed by Northern blot analysis (FIG. 17A).

IL-6 = IL-6 production by retrovirally transduced wt and XBP-1-/- B cells (ELISA, Northern blot); format: cell-based, murine; conditions: for secretion of IL-6 compared to control cells: LPS 72 h
Protocol: Assays to measure immunoglobulin or cytokine levels in culture supernatants were performed as described (e.g., Hodge et al., 1996 Immunity. 4:397-405 or Science. 1996 274:1903-5).
The XBP-1 cDNAs for the unspliced (XBP-1u/s) and the spliced (XBP-1s) forms were PCR-amplified from the total RNA of untreated and tunicamycin treated NIH3T3 cells, respectively, with a primer set (5′-[…]-3′ (SEQ ID NO: 7) and 5′-[…]-3′) (SEQ ID NO: 8). XBP-1u form was generated by a PCR-based mutagenesis from XBP-unspliced/s cDNA so that the two G residues at position 532 and 535 were changed to A without changing amino acid sequences in the XBP-1u open reading frame. Numbers are based on the sequences from gene bank database (NM_013842 [gi:13775155]). These XBP-1 cDNAs were inserted into the GFP-RV retroviral vector by using blunt end ligation (Sambrook et al., 1989). EFFECTENE transfection (Quiagen) was used to introduce the DNA into the Phoenix cell line as described by manufacturer (e.g., Reimold et al., 2001 Nature. 412:300-7 or Int Immunol. 2001 13:241-8). Viral supernatants were harvested after 48 hours and frozen at −80° C. for later use. B cells were purified from mouse spleens using CD43 depletion or positive selection with B220+ magnetic beads as described by the manufacturer (MidiMacs, Miltenyi Biotech). B cell purity was generally near 95% as confirmed by flow cytometry. The B cells (10^6 cells /ml) were then activated in culture with LPS 10 μg/ml and F (ab′)2 anti-IgM (5 μg/ml Southern Biotechnology Associates Inc.) for 24 hours. The 1 ml of activated B cells (10^6 cells/ml) were mixed with 4 μg of polybrene and 1 ml of virus-containing supernatant and spun at 1000 g for 45 minutes at 24° C. Cells were incubated for 24-36 h at 37° C. and then GFP+ cells were flow sorted and returned to culture with and without stimulation.
In human multiple myeloma cells, XBP-1 was induced by IL-6 treatment and implicated in the proliferation of malignant plasma cells (Wen et al., 1999). However, no role for IL-6 in upregulating XBP-1 transcripts or in mediating splicing of XBP-1 RNA in mature B cells has been described (FIG. 6A). The ability of XBP-1 to induce IL-6 production in wt and XBP-1^−/− primary B cells was tested. As described above, in vitro activated murine splenic B cells were transduced using retroviruses expressing bicistronic mRNA for XBP-1u/s, XBP-1s, XBP-1u and control GFP. After cell sorting, GFP^+ cells were stimulated with LPS and assayed for cytokine production after 72 h. In FIG. 6 panel (A) purified B cells from wt and XBP-1^−/− mice were activated in culture with LPS 10 μg/ml and F(ab′)2 anti-IgM (5 μg/ml ) for 24 hours. Retroviral transduction with GFP alone (GFP-Rv), XBP-1u/s (XBP-1 u/s GFP Rv), XBP-1s (XBP-1s GFP Rv) or XBP-1u (XBP-1u GFP Rv) of activated B cells was performed. Cells were incubated for 24-36 h at 37° C. and then GFP+ cells were flow sorted and then returned to culture with LPS stimulation (10 μg/ml) for 72 h. Cytokine production was analyzed by ELISA from culture supernatants of stimulated B cells. Experiments were done at least three times and standard deviation is shown. In panel (B) Total RNAs were prepared from stimulated B cells above and XBP-1 mRNA levels were determined by Northern blot analysis with γ-actin control

B1: XBP-1s: vector encoding only the spliced form of murine XBP-1, a protein of 371 aa (protein)
chain: MVVVAAAPSAATAAPKVLLLSGQPASGGRALPLMVPGPRAAGSEASGTPQARKRQRLTHLSPEEKALRRKLKNRVAAQTARDRKKARMSELEQQVVDLEEENHKLQLENQLLREKTHGLVVENQELRTRLGMDTLDPDEVPEVEAKGSGVRLVAGSAESAAGAGPVVTSPEHLPMDSDTVASSDSESDILLGILDKLDPVMFFKCPSPESASLEELPEVYPEGPSSLPASLSLSVGTSSAKLEAINELIRFDHVYTKPLVLEIPSETESQTNVVVKIEEAPLSSSEEDHPEFIVSVKKEPLEDDFIPELGISNLLSSSHCLRPPSCLLDAHSDCGYEGSPSPFSDMSSPLGTDHSWEDTFANELFPQLISV
- ATF6α induction (UPR target genes): also induced by XBP-1s
- BiP induction (UPR target genes): only marginally induced
- CHOP induction (UPR target genes): not significantly induced
- ERdj4 and p58ipk expression (UPR target genes): sufficient to induce ERdj4 and p58^ipk expression
- share of analyzed UPR target genes induced (UPR target genes): ~23%
- secretion of IL-6 compared to control cells (IL-6; XBP-1-/- B cells): seven fold
- increase in IL-6 gene expression compared to controls (Northern blot) (IL-6; XBP-1s transduced cells): ~5 fold
- secretion of IL-6 compared to control cells (IL-6; wild type B cells): approximately ten-fold
